Experiments:
horny layer (skin) = test: Skin hydration after topical application (corneometer); assay type: in vivo, human (healthy volunteers); details: 0.2% in ointment, single administration, average for 10 subjects
Description: In order to establish a comparison between hyaluronic acid and its derivatives of the present invention, some experiments were carried out to instrumentally evaluate, after topical application, the hydrating properties of the compounds in examination. All the compounds were […] concentration of 0.2% in an ointment the composition of which was as follows: […] Each volunteer was treated (single administration) with all the formulations in examination, which were applied (1 gr./ointment) to the inside surface of each forearm, distinguishing with a dermographic pencil the application zone (about 25 cm^2) of each product and standardizing the procedure as far as possible. To the right forearm were applied the compounds known as […]9, while to the left were applied HYAFF10, placebo and hyaluronic acid. […] Most particularly, the dielectric strength of the water was measured (in 0.8 seconds), after application of the sensor (condenser) to the skin surface. […] Registrations were carried out in constant humidity conditions.

[1] = system: dextran-induced aseptic (exudative) phlogosis in rabbit eye; test: Anti-inflammatory activity: dextran-induced aseptic (exudative) phlogosis in rabbit eye; assay type: in vivo; details: for eyes without signs of phlogosis out of the total number of eyes treated: 3 drops every 6 hours, 4 treated eyes
Description: 9 hyaluronic esters of cortisone, hydrocortisone and fluorocortisone (9 fluorohydrocortisone) identified by the code names HYC1-HYC9 were tested. Table 1 describes these compounds and gives the percentages of the number of carboxylic groups of HY which are esterified with the above corticosteroids, and where applicable the percentage esterified with simple aliphatic alcohols and those salified with alkaline metals (Na):
Aseptic (exudative) phlogosis was induced in 48 rabbits by intraocular injection of dextran (1% in saline, 0.1 ml). The various products were administered by instillation in the right eye (RE) of the rabbits, while in the left eye (LE) only vehicle was instilled.
The treament (3 drops every 6 hours) was begun immediately after the injection of dextran and was continued for 16 days.
Both eyes of each rabbit were observed through a slit lamp. In particular the following were examined: the state of the conjunctiva and corneal epithelium, the anterior chamber (presence of Tyndall effect), state of the iris and of the posterior segment of the eye. With a Goldmann lens, the state of the back of the eye was examined. The presence of signs of inflammation (hyperemia, exudate, cloudiness of the liquids, etc.) was recorded.
Values are expressed as percentages (number of eyes without signs of phlogosis out of the total number of eyes treated). In brackets are the number of treated eyes.

[2] = Absorption and bioavailability: plasma levels of hydrocortisone in rats; assay type: in vivo, male Sprague-Dawley rats; details: s.c.; for average plasmatic level of hydrocortisone: average of 4 values; for Ka: HYC 6.5 mg/kg
Description: Male Sprague-Dawley rats, with a body weight of 250-350 gr were used, obtained from Charles River-Calco (Como), fed ad libitum with water and compound feed in pellets, with the code name of 4RF 21, produced by "Italiana Mangimi", licensee of Charles River.
Hydrocortisone was administered in the form of sodium hemisuccinate salt at the dose of 1.34 mg/kg (corresponding to 1 mg/kg of hydrocortisone base) by general intravenous route and at the dose of 1.34 mg/kg and 2.68 mg/ kg (corresponding to 2 mg/ kg of hydrocortisone base) by subcutaneouos route (the i.v. route was considered in order to determine the pharmacokinetic parameters which serve as a comparison for the evaluation of absorption of any other administration route).
The three HYC derivatives were administered by subcutaneous route at the dose of 6.5 and 13 mg/kg (doses corresponding to about 1 and 2 mg/kg in hydrocortisone base). […] All the compounds were injected at a constant volume of 1 ml/kg.
After administration, 0.3 ml of blood was drawn from each animal by cardiac puncture in the presence of anticoagulant (sodium heparin).
Blood drawing times were as follows: *15 mins, 30 mins, 60 mins, 120 mins, 180 min, 300 mins, 360 mins, 420 mins, 480 mins (*limited to the intraveneous route).
The hydrocortisone was dosed by radioimmunoassay method (Cortisolo Kit, Biodata, cod. 10394) using iodate tracing. […] The linearity of the method comes between 1 and 1000 ng/ml. The observation limit is 1 ng/ml.
The dosage of the cortisolemia in the rat is not influenced either by the base levels or by the circadian rhythms of this hormone, as the metabolic pattern of the endogenous glucocorticoid hormones in the rat, leads to the production of corticosterone and not cortisol (see E. L. Green: Biology of the laboratory mouse.)
In Table 3 are reported the results of the average plasma levels of hydrocortisone, after i.v. and s.c. injection (1 and 2 mg/kg). […] In Table 4 are reported the pharmacokinetic parameters of cortisol calculated graphically from the plasmatic decline curves. In Table 3 are reported the average levels of cortisol after subcutaneous administration of the three HYC derivatives at doses of 6.5 and 13 mg/kg (corresponding to about 1 and 2 mg/kg in hydrocortisone base). In Table 4 are reported the pharmacokinetic parameters relative to cortisol calculated graphically with the method of residues from the plasma absorption curve of the three HYC products.

[3] = 10 days from start of phlogosis
[4] = 12 days from start of phlogosis
[5] = 14 days from start of phlogosis
[6] = 16 days from start of phlogosis

| Substance | eyes without signs of phlogosis out of the total number of eyes treated ([1]; 2 days from start of phlogosis) [%] | eyes without signs of phlogosis out of the total number of eyes treated ([1]; 4 days from start of phlogosis) [%] | eyes without signs of phlogosis out of the total number of eyes treated ([1]; 6 days from start of phlogosis) [%] | eyes without signs of phlogosis out of the total number of eyes treated ([1]; 8 days from start of phlogosis) [%] | eyes without signs of phlogosis out of the total number of eyes treated [1, 3] [%] | eyes without signs of phlogosis out of the total number of eyes treated [1, 4] [%] | eyes without signs of phlogosis out of the total number of eyes treated [1, 5] [%] | eyes without signs of phlogosis out of the total number of eyes treated [1, 6] [%] | average plasmatic level of hydrocortisone ([2]; 6.5 mg/kg, 30 min) [ng/mL] | average plasmatic level of hydrocortisone ([2]; 6.5 mg/kg, 60 min) [ng/mL] | average plasmatic level of hydrocortisone ([2]; 6.5 mg/kg, 120 min) [ng/mL] | average plasmatic level of hydrocortisone ([2]; 6.5 mg/kg, 180 min) [ng/mL] | average plasmatic level of hydrocortisone ([2]; 6.5 mg/kg, 360 min) [ng/mL] | average plasmatic level of hydrocortisone ([2]; 6.5 mg/kg, 420 min) [ng/mL] | average plasmatic level of hydrocortisone ([2]; 6.5 mg/kg, 480 min) [ng/mL] | average plasmatic level of hydrocortisone ([2]; 13 mg/kg, 30 min) [ng/mL] | average plasmatic level of hydrocortisone ([2]; 13 mg/kg, 60 min) [ng/mL] | average plasmatic level of hydrocortisone ([2]; 13 mg/kg, 120 min) [ng/mL] | average plasmatic level of hydrocortisone ([2]; 13 mg/kg, 180 min) [ng/mL] | average plasmatic level of hydrocortisone ([2]; 13 mg/kg, 300 min) [ng/mL] | other results |
| --- | --- | --- | --- | --- | --- | --- | --- | --- | --- | --- | --- | --- | --- | --- | --- | --- | --- | --- | --- | --- | --- |
| HYALURONIC ACID [reference compound] | – | – | – | – | – | – | – | – | – | – | – | – | – | – | – | – | – | – | – | – | x Δ% degree of hydration of the corneal layer, 1st hr (horny layer (skin)): 54.7%; x Δ% degree of hydration of the corneal layer, 3rd hr (horny layer (skin)): 37.6%; x Δ% degree of hydration of the corneal layer, 6th hr (horny layer (skin)): 19.7%; x Δ% degree of hydration of the corneal layer, 24th hr (horny layer (skin)): 5.3% |
| (partial) butyl ester of hyaluronic acid (HY) [HYAFF10] | – | – | – | – | – | – | – | – | – | – | – | – | – | – | – | – | – | – | – | – | x Δ% degree of hydration of the corneal layer, 1st hr (horny layer (skin)): 68.8%; x Δ% degree of hydration of the corneal layer, 3rd hr (horny layer (skin)): 57.0%; x Δ% degree of hydration of the corneal layer, 6th hr (horny layer (skin)): 27.5%; x Δ% degree of hydration of the corneal layer, 24th hr (horny layer (skin)): 8.3% |
| (partial and mixed) ethanol and hydrocortisone ester (LC21) of hyaluronic acid (HY) [HYC8] | 0.0 | 0.0 | 0.0 | 25.0 | 50.0 | 100.0 | 100.0 | 100.0 | 33.75 | 45.23 | 44.75 | 41.80 | 26.10 | 20.50 | 17.60 | 34.62 | 51.69 | 108.01 | 76.64 | 54.66 | average plasmatic level of hydrocortisone ([2]; 6.5 mg/kg, 300 min): 30.00 ng/mL; average plasmatic level of hydrocortisone ([2]; 13 mg/kg, 360 min): 47.17 ng/mL; average plasmatic level of hydrocortisone ([2]; 13 mg/kg, 420 min): 42.60 ng/mL; average plasmatic level of hydrocortisone ([2]; 13 mg/kg, 480 min): 37.03 ng/mL; Ka [2]: 0.94 h⁻¹ |
| (partial) hydrocortisone ester (C21) of hyaluronic acid (HY) [HYC2] | 0.0 | 0.0 | 0.0 | 25.0 | 50.0 | 100.0 | 100.0 | 100.0 | 27.02 | 35.67 | 42.32 | 37.35 | 26.96 | 24.24 | 18.92 | 32.32 | 50.51 | 62.42 | 58.44 | 51.68 | average plasmatic level of hydrocortisone ([2]; 6.5 mg/kg, 300 min): 32.27 ng/mL; average plasmatic level of hydrocortisone ([2]; 13 mg/kg, 360 min): 48.17 ng/mL; average plasmatic level of hydrocortisone ([2]; 13 mg/kg, 420 min): 44.67 ng/mL; average plasmatic level of hydrocortisone ([2]; 13 mg/kg, 480 min): 39.41 ng/mL; Ka [2]: 0.86 h⁻¹ |
| benzylester of hyaluronic acid (HY) [HYAFF11] | – | – | – | – | – | – | – | – | – | – | – | – | – | – | – | – | – | – | – | – | solubility in DMSO: 200 mg/mL |
| (mixed) ethanol and hydrocortisone ester (C21) of hyaluronic acid (HY) [HYC5] | 0.0 | 0.0 | 25.0 | 50.0 | 50.0 | 100.0 | 100.0 | 100.0 | 33.41 | 49.52 | 60.52 | 61.17 | 42.44 | 30.43 | 25.85 | 26.55 | 38.77 | 41.56 | 44.81 | 32.51 | antiinflammatory activity (in words) ([1]; compared with the corresponding cortisones): most efficient of these derivatives; average plasmatic level of hydrocortisone ([2]; 13 mg/kg, 360 min): 31.92 ng/mL; average plasmatic level of hydrocortisone ([2]; 13 mg/kg, 420 min): 26.17 ng/mL; average plasmatic level of hydrocortisone ([2]; 13 mg/kg, 480 min): 22.54 ng/mL; Ka [2]: 0.65 h⁻¹ |
